First the molecules themselves.
B1: MTSP-1 protease domain Q38H/I41S/D60bT/F60eS/Y60gW/D96K/F97G/ins97aV/T98P/F99L/M117K/C122S/G151H/Q175L/Q192D (enzyme)
chain: VVGGTDADEGEWPWQVSLHALGHGHSCGASLISPNWLVSAAHCYIDTRGSRWSDPTQWTAFLGLHDQSQRSAPGVQERRLKRIISHPFFNKGVPLDYDIALLELEKPAEYSSKVRPISLPDASHVFPAGKAIWVTGWGHTQYGGTHALILQKGEIRVINQTTCENLLPQLITPRMMCVGFLSGGVDSCDGDSGGPLSSVEADGRIFQAGVVSWGDGCAQRNKPGVYTRLPLFRDWIKENTGV
B2: MTSP-1 protease domain L36Q/Q38H/I41S/D60bT/F60eS/Y60gW/D96K/F97G/ins97aV/T98P/F99L/C122S/G151H/Q175L/Q192D (enzyme)
chain: B1 chain with L21Q, K113M
B3: MTSP-1 protease domain Q38H/I41S/D60bT/F60eS/Y60gW/D96K/F97G/ins97aV/T98P/F99L/C122S/T150S/G151H/Q175L/Q192D/Q209L (enzyme)
chain: B1 chain with K113M, T145S, Q207L
B4: MTSP-1 protease domain Q38H/I41A/D60bV/F60eR/Y60gW/D96F/F97D/ins97aE/T98G/F99M/C122S/G151N/Q175L/Q192R (enzyme)
chain: VVGGTDADEGEWPWQVSLHALGHGHACGASLISPNWLVSAAHCYIDVRGRRWSDPTQWTAFLGLHDQSQRSAPGVQERRLKRIISHPFFNFDEGMDYDIALLELEKPAEYSSMVRPISLPDASHVFPAGKAIWVTGWGHTQYGGTNALILQKGEIRVINQTTCENLLPQLITPRMMCVGFLSGGVDSCRGDSGGPLSSVEADGRIFQAGVVSWGDGCAQRNKPGVYTRLPLFRDWIKENTGV
B5: MTSP-1 Q38H/I41S/D60bT/F60eS/Y60gW/F97D/ins97aV/T98P/F99L/C122S/G151H/Q175L/Q192E (enzyme)
chain: B1 chain with K91D, G92D, K113M, D189E
B6: MTSP-1 protease domain Q38H/I41A/D60bV/F60eR/Y60gW/D96W/F97D/ins97aD/T98G/F99L/C122S/G151N/Q175L/Q192G (enzyme)
chain: B4 chain with F91W, E93D, M95L, R189G
B7: MTSP-1 protease domain Q38H/I41A/D60bV/F60eR/Y60gW/D96F/F97S/ins97aH/T98G/F99L/C122S/G151N/Q175L/Q192G (enzyme)
chain: B4 chain with D92S, E93H, M95L, R189G
B8: MTSP-1 protease domain Q38H/I41S/D60bT/F60eS/Y60gW/D96F/F97S/ins97aD/T98G/F99L/C122S/G151H/Q175L/Q192D (enzyme)
chain: B1 chain with K91F, G92S, V93D, P94G, K113M
B9: MTSP-1 Q38H/I41S/D60bT/F60eS/Y60gW/D96K/ins97aV/F97G/T98P/F99L/C122S/G151H/Q175L/Q192D (enzyme)
chain: B1 chain with K113M
B10: MTSP-1 protease domain Q38H/I41S/D60bT/F60eS/Y60gW/D96Y/F97N/ins97aE/T98S/F99L/C122S/G151H/Q175L/Q192D (enzyme)
chain: B1 chain with K91Y, G92N, V93E, P94S, K113M
B11: MTSP-1 Q38H/I41S/D60bT/F60eS/Y60gW/D96V/F97G/ins97aV/T98P/F99L/C122S/G151H/Q175L/Q192D (enzyme)
chain: B1 chain with K91V, K113M
B12: MTSP-1 protease domain Q38H/I41A/D60bV/F60eR/Y60gW/D96F/F97E/ins97aT/T98G/F99M/C122S/G151N/Q175L/Q192G (enzyme)
chain: B4 chain with D92E, E93T, R189G
B13: MTSP-1 protease domain Q38H/I41A/D60bT/F60eK/Y60gF/F97T/ins97aE/T98G/F99L/C122S/H143R/G151N/Q175L/Q192V (enzyme)
chain: B4 chain with V47T, R50K, W52F, F91D, D92T, M95L, H139R, R189V
B14: MTSP-1 protease domain Q38H/I41A/D60bV/F60eR/Y60gW/D96F/F97E/ins97aS/T98G/F99M/C122S/G151N/Q175L/Q192G (enzyme)
chain: B4 chain with D92E, E93S, R189G
B15: MTSP-1 protease domain Q38H/I41A/D60bV/F60eR/Y60gW/D96F/F97Y/ins97aE/T98G/F99M/C122S/G151N/Q175L/Q192R (enzyme)
chain: B4 chain with D92Y
B16: MTSP-1 protease domain Q38H/I41S/D60bT/F60eS/Y60gW/D96K/F97G/ins97aA/T98P/F99L/C122S/G151H/Q175L/Q192D (enzyme)
chain: B1 chain with V93A, K113M
B17: MTSP-1 protease domain Q38H/I41S/D60bT/F60eS/Y60gW/D96Y/F97R/ins97aD/T98G/F99L/C122S/G151H/Q175L/Q192D (enzyme)
chain: B1 chain with K91Y, G92R, V93D, P94G, K113M
B18: MTSP-1 protease domain Q38H/I41A/D60bV/F60eR/Y60gW/D96F/F97Y/ins97aN/T98G/F99M/C122S/G151N/Q175L/Q192G (enzyme)
chain: B4 chain with D92Y, E93N, R189G
B19: MTSP-1 protease domain Q38H/I41S/D60bT/F60eS/Y60gW/D96F/F97Y/ins97aD/T98G/F99L/C122S/G151H/Q175L/Q192D (enzyme)
chain: B1 chain with K91F, G92Y, V93D, P94G, K113M
B20: MTSP-1 protease domain Q38H/I41A/D60bV/F60eR/Y60gW/D96W/F97D/ins97aT/T98G/F99L/C122S/G151N/Q175L/Q192G (enzyme)
chain: B4 chain with F91W, E93T, M95L, R189G
B21: MTSP-1 protease domain Q38M/I41S/F60eH/Y60gW/D96Y/F97N/T98G/F99L/C122S/G151N/Q175L/Q192D (enzyme)
chain: VVGGTDADEGEWPWQVSLHALGMGHSCGASLISPNWLVSAAHCYIDDRGHRWSDPTQWTAFLGLHDQSQRSAPGVQERRLKRIISHPFFNYNGLDYDIALLELEKPAEYSSMVRPISLPDASHVFPAGKAIWVTGWGHTQYGGTNALILQKGEIRVINQTTCENLLPQLITPRMMCVGFLSGGVDSCDGDSGGPLSSVEADGRIFQAGVVSWGDGCAQRNKPGVYTRLPLFRDWIKENTGV
B22: MTSP-1 protease domain Q38Y/I41S/D60bT/F60eR/Y60gW/D96M/T98G/F99L/C122S/G151N/Q175L/Q192D (enzyme)
chain: B21 chain with M23Y, D47T, H50R, Y91M, N92F
B23: MTSP-1 protease domain I41S/D60bT/F60eR/Y60gW/D96M/F97N/T98G/F99L/C122S/G151N/Q175L/Q192D (enzyme)
chain: B21 chain with M23Q, D47T, H50R, Y91M
B24: MTSP-1 protease domain Q38E/I41S/D60bV/F60eK/Y60gW/D96M/F97N/T98G/F99L/C122S/G151N/Q175L/Q192D (enzyme)
chain: B21 chain with M23E, D47V, H50K, Y91M
B25: MTSP-1 protease domain Q38Y/I41S/D60bT/F60eR/Y60gW/D96M/F97N/T98G/F99L/C122S/G151N/Q192D (enzyme)
chain: B21 chain with M23Y, D47T, H50R, Y91M, L169Q
B26: MTSP-1 protease domain Q38Y/I41S/D60bT/F60eR/Y60gW/D96M/F97N/T98G/F99L/C122S/G151N/Q175L/Q192D (enzyme)
chain: B21 chain with M23Y, D47T, H50R, Y91M
B27: MTSP-1 protease domain Q38Y/I41S/D60bT/F60eR/Y60gW/D96M/F97N/T98G/C122S/G151N/Q175L/Q192D (enzyme)
chain: B21 chain with M23Y, D47T, H50R, Y91M, L94F
B28: MTSP-1 protease domain Q38Y/D60bT/F60eR/Y60gW/D96M/F97N/T98G/F99L/C122S/G151N/Q175L/Q192D (enzyme)
chain: B21 chain with M23Y, S26I, D47T, H50R, Y91M
B29: MTSP-1 Q38H/I41A/D60bV/F60eR/Y60gW/D96I/F97N/T98G/F99L/C122S/G151N/Q175L/Q192D (enzyme)
chain: B21 chain with M23H, S26A, D47V, H50R, Y91I
B30: MTSP-1 protease domain Q38Y/I41S/D60bT/Y60gW/D96M/F97N/T98G/F99L/C122S/G151N/Q175L/Q192D (enzyme)
chain: B21 chain with M23Y, D47T, H50F, Y91M
B31: MTSP-1 protease domain Q38H/I41S/D60bT/F60eK/Y60gF/D96M/F97N/T98G/F99L/C122S/G151N/Q175L/Q192D (enzyme)
chain: B21 chain with M23H, D47T, H50K, W52F, Y91M
B32: MTSP-1 protease domain Q38H/I41S/D60bT/F60eK/D96V/F97N/T98G/F99L/C122S/G151N/Q175L/Q192D (enzyme)
chain: B21 chain with M23H, D47T, H50K, W52Y, Y91V
B33: MTSP-1 protease domain Q38Y/I41S/D60bT/F60eR/D96M/F97N/T98G/F99L/C122S/G151N/Q175L/Q192D (enzyme)
chain: B21 chain with M23Y, D47T, H50R, W52Y, Y91M
B34: MTSP-1 protease domain Q38Y/I41S/F60eR/Y60gW/D96M/F97N/T98G/F99L/C122S/G151N/Q175L/Q192D (enzyme)
chain: B21 chain with M23Y, H50R, Y91M
B35: MTSP-1 protease domain Q38Y/I41S/D60bT/F60eR/Y60gW/D96M/F97N/F99L/C122S/G151N/Q175L/Q192D (enzyme)
chain: B21 chain with M23Y, D47T, H50R, Y91M, G93T
B36: MTSP-1 protease domain Q38H/I41S/F60eT/Y60gW/D96M/F97N/T98G/F99L/C122S/G151N/Q175L/Q192D (enzyme)
chain: B21 chain with M23H, H50T, Y91M
B37: MTSP-1 protease domain Q38Y/I41S/D60bT/F60eR/Y60gW/D96M/F97N/T98G/F99L/C122S/G151N/Q175L (enzyme)
chain: B21 chain with M23Y, D47T, H50R, Y91M, D188Q
B38: MTSP-1 protease domain Q38Y/I41S/D60bV/F60eR/Y60gF/D96M/F97N/T98G/F99L/C122S/G151N/Q175L/Q192D (enzyme)
chain: B21 chain with M23Y, D47V, H50R, W52F, Y91M
B39: MTSP-1 protease domain Q38Y/I41S/D60bT/F60eR/Y60gW/F97N/T98G/F99L/C122S/G151N/Q175L/Q192D (enzyme)
chain: B21 chain with M23Y, D47T, H50R, Y91D

Positions count from the first letter of the chain named. Names may count otherwise.

Chain of plasma purified human complement protein C3 (human) (P01024 23-667, chain 1 of 2): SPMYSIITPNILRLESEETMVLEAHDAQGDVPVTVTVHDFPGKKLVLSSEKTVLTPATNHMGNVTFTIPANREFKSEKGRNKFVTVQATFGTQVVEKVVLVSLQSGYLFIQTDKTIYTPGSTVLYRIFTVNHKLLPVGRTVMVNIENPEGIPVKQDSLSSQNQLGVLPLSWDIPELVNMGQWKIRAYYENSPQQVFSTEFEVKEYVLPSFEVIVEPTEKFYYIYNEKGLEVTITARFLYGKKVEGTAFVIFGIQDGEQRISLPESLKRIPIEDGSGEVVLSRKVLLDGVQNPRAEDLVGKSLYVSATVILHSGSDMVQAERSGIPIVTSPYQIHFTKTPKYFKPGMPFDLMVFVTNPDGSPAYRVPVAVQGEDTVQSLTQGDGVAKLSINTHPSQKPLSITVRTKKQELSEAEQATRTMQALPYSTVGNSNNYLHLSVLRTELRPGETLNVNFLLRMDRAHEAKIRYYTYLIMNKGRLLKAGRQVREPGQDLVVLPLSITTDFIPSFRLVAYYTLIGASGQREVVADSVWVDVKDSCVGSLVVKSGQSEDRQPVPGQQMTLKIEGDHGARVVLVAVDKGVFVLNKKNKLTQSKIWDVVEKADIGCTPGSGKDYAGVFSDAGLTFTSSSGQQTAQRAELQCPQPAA
Chain of plasma purified human complement protein C3 (human) (P01024 672-1663, chain 2 of 2): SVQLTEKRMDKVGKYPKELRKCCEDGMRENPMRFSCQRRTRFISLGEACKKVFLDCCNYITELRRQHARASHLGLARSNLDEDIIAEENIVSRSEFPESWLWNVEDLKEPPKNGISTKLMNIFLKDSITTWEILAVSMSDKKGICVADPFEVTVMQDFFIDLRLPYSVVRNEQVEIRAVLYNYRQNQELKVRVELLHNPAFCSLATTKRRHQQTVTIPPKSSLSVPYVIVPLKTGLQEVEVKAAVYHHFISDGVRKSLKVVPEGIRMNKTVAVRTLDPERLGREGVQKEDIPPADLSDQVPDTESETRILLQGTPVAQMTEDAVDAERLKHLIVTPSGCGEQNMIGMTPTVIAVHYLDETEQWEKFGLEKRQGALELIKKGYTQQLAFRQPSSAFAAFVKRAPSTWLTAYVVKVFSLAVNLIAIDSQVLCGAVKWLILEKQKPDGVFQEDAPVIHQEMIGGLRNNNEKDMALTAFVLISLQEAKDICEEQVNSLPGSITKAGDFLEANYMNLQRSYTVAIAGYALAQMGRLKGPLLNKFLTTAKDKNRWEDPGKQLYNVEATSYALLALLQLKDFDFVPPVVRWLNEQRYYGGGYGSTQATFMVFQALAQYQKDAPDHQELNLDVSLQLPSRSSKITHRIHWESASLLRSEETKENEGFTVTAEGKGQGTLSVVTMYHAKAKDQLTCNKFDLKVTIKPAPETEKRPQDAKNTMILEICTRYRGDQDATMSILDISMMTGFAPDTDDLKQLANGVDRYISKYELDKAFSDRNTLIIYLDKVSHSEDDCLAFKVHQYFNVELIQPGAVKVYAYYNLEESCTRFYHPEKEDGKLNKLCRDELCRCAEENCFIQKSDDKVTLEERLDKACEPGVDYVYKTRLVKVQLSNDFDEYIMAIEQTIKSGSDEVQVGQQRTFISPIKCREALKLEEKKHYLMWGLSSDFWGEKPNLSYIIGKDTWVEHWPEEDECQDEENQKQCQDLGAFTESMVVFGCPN

The experiment concerns the target plasma purified human complement protein C3 (human) (UniProt P01024). In words: cell-based or functional assay.
B1 displayed an EC50 hC3 cleavage of 4.75 nM.

In turn, B2 had an EC50 hC3 cleavage of 5.49 nM.

B3 displayed an EC50 hC3 cleavage of 2.88 nM.

Take B4: the EC50 hC3 cleavage is 13.1 nM.

For B5, the EC50 of hC3 cleavage was determined as 6.68 nM.

Regarding B6, the EC50 hC3 cleavage turned out to be 5.28 nM.

As to B7, the EC50 hC3 cleavage worked out at 3.14 nM.

In the case of B8, the EC50 hC3 cleavage came out at 5.17 nM.

B9 showed an EC50 of hC3 cleavage of 6.86 nM.

B10 yielded an EC50 hC3 cleavage of 4.53 nM.

B11: the EC50 of hC3 cleavage is 2.85 nM.

The molecule B12 returned an EC50 hC3 cleavage of 16.9 nM.

B13: the EC50 hC3 cleavage is 24.5 nM.

Turning to B14, the EC50 hC3 cleavage stood at 21.3 nM.

Molecule B15 gave an EC50 hC3 cleavage of 7.16 nM.

B16 displayed an EC50 hC3 cleavage of 1.43 nM.

For B17, the EC50 hC3 cleavage came to 5.71 nM.

For B18, the EC50 hC3 cleavage worked out at 3.76 nM.

As to B19, the EC50 hC3 cleavage came out at 3.13 nM.

B20 returned an EC50 hC3 cleavage of 4.9 nM.

The molecule B21 registered an EC50 hC3 cleavage of 21.6 nM.

B22: the EC50 hC3 cleavage was found to be 3.27 nM.

B23 displayed an EC50 hC3 cleavage of 9.47 nM.

In turn, B24 returned an EC50 hC3 cleavage of 19.1 nM.

B25: the EC50 hC3 cleavage is 56.7 nM.

The molecule B26 returned an EC50 hC3 cleavage of 5.12 nM.

Consider B27, for which the EC50 hC3 cleavage was found to be 33.6 nM.

With B28, the EC50 hC3 cleavage is 47.7 nM.

Molecule B29 returned an EC50 of hC3 cleavage of 2.87 nM.

In turn, B30 came in with an EC50 hC3 cleavage of 3.08 nM.

Take B31: the EC50 hC3 cleavage was 20.6 nM.

The molecule B32 came in with an EC50 hC3 cleavage of 13.3 nM.

The molecule B33 gave an EC50 hC3 cleavage of 16.4 nM.

Regarding B34, the EC50 hC3 cleavage was determined as 10.4 nM.

The molecule B35 yielded an EC50 hC3 cleavage of 10.8 nM.

B36 came in with an EC50 hC3 cleavage of 35.7 nM.

The molecule B37 came in with an EC50 hC3 cleavage of 1.08 nM.

B38 yielded an EC50 hC3 cleavage of 5.25 nM.

On to B39, for which the EC50 hC3 cleavage came to 15.9 nM.

Source of the values: US20240018502A1.
